# Results from patent US20130231277A1 (published 2013).
# T1: ectodomain of murine βKlotho (F53 to L995 of SEQ ID NO: 218) with a C-terminal FLAG tag (UniProt Q99N32 53-995)
# T1 chain: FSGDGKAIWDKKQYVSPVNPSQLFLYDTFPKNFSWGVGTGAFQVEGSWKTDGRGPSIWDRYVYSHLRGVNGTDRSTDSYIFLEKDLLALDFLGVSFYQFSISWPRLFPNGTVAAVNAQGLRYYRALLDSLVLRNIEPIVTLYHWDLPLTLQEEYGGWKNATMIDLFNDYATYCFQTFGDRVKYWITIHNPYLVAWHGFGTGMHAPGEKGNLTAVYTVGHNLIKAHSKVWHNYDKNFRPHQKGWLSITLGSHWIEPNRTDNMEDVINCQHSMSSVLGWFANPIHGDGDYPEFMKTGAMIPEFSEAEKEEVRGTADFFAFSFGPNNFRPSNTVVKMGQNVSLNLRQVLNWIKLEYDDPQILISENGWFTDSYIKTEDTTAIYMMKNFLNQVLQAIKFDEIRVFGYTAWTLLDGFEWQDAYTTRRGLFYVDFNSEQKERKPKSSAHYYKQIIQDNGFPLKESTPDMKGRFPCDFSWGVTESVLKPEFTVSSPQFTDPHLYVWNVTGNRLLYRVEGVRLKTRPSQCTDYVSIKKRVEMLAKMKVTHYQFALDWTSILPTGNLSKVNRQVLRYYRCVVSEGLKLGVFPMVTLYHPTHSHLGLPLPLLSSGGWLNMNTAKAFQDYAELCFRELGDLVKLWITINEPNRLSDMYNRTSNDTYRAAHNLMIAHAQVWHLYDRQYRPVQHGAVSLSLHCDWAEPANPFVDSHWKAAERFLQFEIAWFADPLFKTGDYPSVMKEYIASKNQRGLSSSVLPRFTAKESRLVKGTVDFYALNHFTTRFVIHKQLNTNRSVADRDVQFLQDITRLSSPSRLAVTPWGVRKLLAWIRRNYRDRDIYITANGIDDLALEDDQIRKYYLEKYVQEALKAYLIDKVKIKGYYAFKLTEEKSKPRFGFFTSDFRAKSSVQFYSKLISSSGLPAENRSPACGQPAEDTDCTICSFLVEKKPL
# Target: T1, ectodomain of murine βKlotho (F53 to …)
# Test: SPR
row,Binder,Kd [nM]
1,ligand-binding domain of human FGFR2c (N149 to E368 of SEQ ID NO: 226) (receptor) NNKRAPYWTNTEKMEKRLHAVPAANTVKFRCPAGGNPMPTMRWLKNGKEFKQEHRIGGYKVRNQHWSLIMESVVPSDKGNYTCVVENEYGSINHTYHLDVVERSPHRPILQAGLPANASTVVGGDVEFVCKVYSDAQPHIQWIKHVEKNGSKYGPDGLPYLKVLKAAGVNTTDKEIEVLYIRNVTFEDAGEYTCLAGNSIGISFHSAWLTVLPAPGREKE,170
2,ligand-binding domain of human FGFR1c (D142 to R365 of SEQ ID NO: 221) (receptor) DNTKPNRMPVAPYWTSPEKMEKKLHAVPAAKTVKFKCPSSGTPNPTLRWLKNGKEFKPDHRIGGYKVRYATWSIIMDSVVPSDKGNYTCIVENEYGSINHTYQLDVVERSPHRPILQAGLPANKTVALGSNVEFMCKVYSDPQPHIQWLKHIEVNGSKIGPDNLPYVQILKTAGVNTTDKEMEVLHLRNVSFEDAGEYTCLAGNSIGLSHHSAWLTVLEALEER,124
